# Data reported in US20030162220A1 (HARUO SUGIYAMA, published 2003).
# Biological target: T1, GST (glutathione S-transferase) alone (UniProt P08515 1-218 = GST)
# T1 construct: Control probe in the west western blots
# Assay: west western blot of his-tagged WTIP fragments (E. coli lysate) probed with GST
# T1 sequence (P08515 whole entry): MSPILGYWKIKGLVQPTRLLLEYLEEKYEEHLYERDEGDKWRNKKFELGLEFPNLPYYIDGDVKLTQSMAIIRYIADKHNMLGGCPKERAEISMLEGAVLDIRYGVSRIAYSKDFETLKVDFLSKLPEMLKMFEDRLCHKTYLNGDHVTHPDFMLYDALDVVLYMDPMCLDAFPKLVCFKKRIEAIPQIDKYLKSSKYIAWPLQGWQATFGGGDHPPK
row,Binder,binding result
1,"WTIP 1-98, polypeptide containing no WW domains with a histidine tag at the C-terminal (other, Expressed in E. coli; whole-cell lysate run on SDS-PAGE and blotted; also called HYPA/FBP11 amino acids 1-98; mutant containing no WW domain; not shown: C-terminal his tag and XhoI junction residues from pET-21b(+)) MRPGTGAERGGLMVSEMESHPPSQGPGDGERRLSGSSLCSGSWVSADGFLRRRPSMGHPGMHYAPMGMHPMGQRANMPPVPHGMMPQMMPPMGGPPMG",no binding
2,"WTIP 1-178, polypeptide containing the WW domain at the N-terminal end of WTIP with a histidine tag at the C-terminal (other, Expressed in E. coli; whole-cell lysate run on SDS-PAGE and blotted; not shown: C-terminal his tag and XhoI junction residues from pET-21b(+)) MRPGTGAERGGLMVSEMESHPPSQGPGDGERRLSGSSLCSGSWVSADGFLRRRPSMGHPGMHYAPMGMHPMGQRANMPPVPHGMMPQMMPPMGGPPMGQMPGMMSSVMPGMMMSHMSQASMQPALPPGVNSMDVAAGTASGAKSMWTEHKSPDGRTYYYNTETKQSTWEKPDDLKTPA",no binding
